In publication PMC10663500, “High-throughput analysis system of interaction kinetics for data-driven antibody design” (Scientific Reports, 2023):
Where a chain is given by its changes, count along the chain named.

B1: toripalimab Fab H.D31A (Fab, V domains shown)
VH: QGQLVQSGAEVKKPGASVKVSCKASGYTFTAYEMHWVRQAPIHGLEWIGVIESETGGTAYNQKFKGRVTITADKSTSTAYMELSSLRSEDTAVYYCAREGITTVATTYYWYFDVWGQGTTVTVSS
VL: DVVMTQSPLSLPVTLGQPASISCRSSQSIVHSNGNTYLEWYLQKPGQSPQLLIYKVSNRFSGVPDRFSGSGSGTDFTLKISRVEAEDVGVYYCFQGSHVPLTFGQGTKLEIK
notes: heavy chain of Sm3 with this change; numbers count from the chain's first residue; as the light chain of Sm3; source: Brevibacillus, culture supernatant (ammonium sulfate precipitate); not shown: 6xHis, C-terminal, kept; 6xHN, C-terminal, kept
B2: toripalimab Fab H.Q62A (Fab, V domains shown)
VH: B1 VH with A31D, Q62A
VL: B1 VL
notes: as for B1
B3: toripalimab Fab L.L101H (Fab, V domains shown)
VH: B1 VH with A31D
VL: B1 VL with L101H
notes: as the heavy chain of Sm3; light chain of Sm3 with this change; numbers count from the chain's first residue; source: Brevibacillus, culture supernatant (ammonium sulfate precipitate); not shown: 6xHis, C-terminal, kept; 6xHN, C-terminal, kept
B4: toripalimab Fab H.G57Y (Fab, V domains shown)
VH: B1 VH with A31D, G57Y
VL: B1 VL
notes: as for B1
B5: toripalimab Fab H.G57A (Fab, V domains shown)
VH: B1 VH with A31D, G57A
VL: B1 VL
notes: as for B1
B6: toripalimab Fab L.Y37A (Fab, V domains shown)
VH: B1 VH with A31D
VL: B1 VL with Y37A
notes: as for B3
B7: toripalimab Fab H.H35Y (Fab, V domains shown)
VH: B1 VH with A31D, H35Y
VL: B1 VL
notes: as for B1
B8: toripalimab Fab H.Y60A (Fab, V domains shown)
VH: B1 VH with A31D, Y60A
VL: B1 VL
notes: as for B1
B9: toripalimab Fab H.K63A (Fab, V domains shown)
VH: B1 VH with A31D, K63A
VL: B1 VL
notes: as for B1
B10: toripalimab Fab H.N61A (Fab, V domains shown)
VH: B1 VH with A31D, N61A
VL: B1 VL
notes: as for B1
B11: toripalimab Fab L.G96A (Fab, V domains shown)
VH: B1 VH with A31D
VL: B1 VL with G96A
notes: as for B3
B12: toripalimab Fab L.Q95Y (Fab, V domains shown)
VH: B1 VH with A31D
VL: B1 VL with Q95Y
notes: as for B3
B13: toripalimab Fab L.L101W (Fab, V domains shown)
VH: B1 VH with A31D
VL: B1 VL with L101W
notes: as for B3
B14: toripalimab Fab H.T58A (Fab, V domains shown)
VH: B1 VH with A31D, T58A
VL: B1 VL
notes: as for B1
B15: toripalimab Fab H.Q62Y (Fab, V domains shown)
VH: B1 VH with A31D, Q62Y
VL: B1 VL
notes: as for B1
B16: toripalimab Fab H.T55Y (Fab, V domains shown)
VH: B1 VH with A31D, T55Y
VL: B1 VL
notes: as for B1
B17: toripalimab Fab H.G56Y (Fab, V domains shown)
VH: B1 VH with A31D, G56Y
VL: B1 VL
notes: as for B1
B18: toripalimab Fab H.G56A (Fab, V domains shown)
VH: B1 VH with A31D, G56A
VL: B1 VL
notes: as for B1
B19: toripalimab Fab H.T58Y (Fab, V domains shown)
VH: B1 VH with A31D, T58Y
VL: B1 VL
notes: as for B1
B20: toripalimab Fab L.S97Y (Fab, V domains shown)
VH: B1 VH with A31D
VL: B1 VL with S97Y
notes: as for B3
B21: toripalimab Fab L.E39A (Fab, V domains shown)
VH: B1 VH with A31D
VL: B1 VL with E39A
notes: as for B3
B22: toripalimab Fab H.I51Y (Fab, V domains shown)
VH: B1 VH with A31D, I51Y
VL: B1 VL
notes: as for B1
B23: toripalimab Fab H.E52A (Fab, V domains shown)
VH: B1 VH with A31D, E52A
VL: B1 VL
notes: as for B1
B24: toripalimab Fab H.Y32A (Fab, V domains shown)
VH: B1 VH with A31D, Y32A
VL: B1 VL
notes: as for B1
B25: toripalimab Fab H.E54Y (Fab, V domains shown)
VH: B1 VH with A31D, E54Y
VL: B1 VL
notes: as for B1
B26: toripalimab Fab H.A59Y (Fab, V domains shown)
VH: B1 VH with A31D, A59Y
VL: B1 VL
notes: as for B1
B27: toripalimab Fab H.T55A (Fab, V domains shown)
VH: B1 VH with A31D, T55A
VL: B1 VL
notes: as for B1
B28: toripalimab Fab H.D31Y (Fab, V domains shown)
VH: B1 VH with A31Y
VL: B1 VL
notes: as for B1
B29: toripalimab Fab H.N61Y (Fab, V domains shown)
VH: B1 VH with A31D, N61Y
VL: B1 VL
notes: as for B1

Tests used:
[1] = molecular target: T1, mouse programmed cell death protein 1 Fc fusion protein (mPD-1-Fc), mPD-1 C60S (aa 25-167) (Mus musculus, UniProt Q02242, stabilised); experiment: SPR; Carterra LSA; Fab from the ammonium sulfate precipitate of the culture supernatant immobilised on a NiHC200M chip; hPD-1 (1-1024 nM) or mPD-1-Fc (4-1024 nM) as analyte, fourfold dilution series, no regeneration; HBS-EP pH 7.4, 25 °C; medians over the spots of a construct, KD = koff/kon; details: one partner purified
T1 construct: not cleaved; source: Expi293F, purified (Protein A, SEC; dimeric fraction); not shown: Fc (human), C-terminal, kept
Outline: (§1)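 On a Carterra LSA at 25 °C, duplicate captures of Fabs were made on a NiHC200M chip; the Fabs came from Brevibacillus culture supernatants, were precipitated with ammonium sulfate and were redissolved in HBS-EP. Fourfold series of human PD-1 (1–1024 nM) or mouse PD-1-Fc (4–1024 nM) were passed over without regeneration, with 10 min association and 5 min dissociation. Binders that were not confirmed were assigned kon 10^3 […] and koff 10^−2 s^−1. The kdka model, run with slow- or fast-dissociation settings and keeping the better fit, gave the rates, and KD was taken as koff/kon from the median values for each construct.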

[2] = molecular target: T2, human programmed cell death protein 1 (hPD-1) C93S (aa 24-167) (Homo sapiens, UniProt Q15116, C93S); experiment: as above; details: one partner purified
T2 construct: made as a fusion with a TEV site and human Fc; the Fc was cut off with TEV protease; source: Expi293F, purified (Protein A, TEV cleavage of Fc, SEC; monomer fractions); not shown: Fc (human), C-terminal, cleaved
T2 sequence (Q15116 24-167 C93S): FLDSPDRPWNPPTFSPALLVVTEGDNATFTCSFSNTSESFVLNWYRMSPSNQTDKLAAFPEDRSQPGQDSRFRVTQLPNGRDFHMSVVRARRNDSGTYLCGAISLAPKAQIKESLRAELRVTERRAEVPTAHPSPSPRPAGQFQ
Outline: as §1

Row | Binder | Kd [1] [nM] | koff [1] [s⁻¹] | kon [1] [M⁻¹ s⁻¹] | Kd [2] [nM] | koff [2] [s⁻¹] | kon [2] [M⁻¹ s⁻¹]
1 | B1 | 204 | 0.00913 | 44700 | < 0.861 | < 1e-05 | 11600
2 | B2 | 153 | 0.00564 | 37000 | < 1.29 | < 1e-05 | 7730
3 | B3 |  |  |  | 60.6 | 0.00111 | 18400
4 | B4 | 90.3 | 0.00664 | 73500 | 3.35 | 0.000138 | 41100
5 | B5 | 125 | 0.00625 | 50100 | 0.598 | 1.47e-05 | 24500
6 | B6 |  |  |  | 237 | 0.00432 | 18300
7 | B7 |  |  |  | 294 | 0.00276 | 9390
8 | B8 | 88.2 | 0.00422 | 47900 | < 0.309 | < 1e-05 | 32300
9 | B9 | 71.3 | 0.00524 | 73600 | < 0.248 | < 1e-05 | 40300
10 | B10 | 32 | 0.00141 | 44100 | < 0.355 | < 1e-05 | 28100
11 | B11 |  |  |  | 372 | 0.00516 | 13900
12 | B12 |  |  |  | 55 | 0.000734 | 13300
13 | B13 |  |  |  | 237 | 0.0322 | 136000
14 | B14 | 169 | 0.0066 | 39000 | < 0.662 | < 1e-05 | 15100
15 | B15 | 186 | 0.00625 | 33600 | < 1.29 | < 1e-05 | 7750
16 | B16 | 35.8 | 0.00179 | 49900 | < 0.354 | < 1e-05 | 28300
17 | B17 | 502 | 0.0174 | 34700 | < 1.7 | < 1e-05 | 5890
18 | B18 | 154 | 0.00466 | 30200 | < 1.46 | < 1e-05 | 6870
19 | B19 | 215 | 0.0107 | 49600 | 1.26 | 1.54e-05 | 12300
20 | B20 |  |  |  | 63.3 | 0.000845 | 13300
21 | B21 |  |  |  | 88.4 | 0.000203 | 2290
22 | B22 |  |  |  | 8.01 | 0.000297 | 37000
23 | B23 |  |  |  | 40.1 | 0.000844 | 21100
24 | B24 | 1310 | 0.0613 | 46900 | 4.68 | 7.41e-05 | 15800
25 | B25 | 80.3 | 0.00402 | 50100 | < 0.326 | < 1e-05 | 30700
26 | B26 | 345 | 0.0135 | 39200 | 2.18 | 4.81e-05 | 22100
27 | B27 | 411 | 0.0151 | 36800 | 5.76 | 4.01e-05 | 6960
28 | B28 | 291 | 0.0133 | 45600 | < 0.349 | < 1e-05 | 28600
29 | B29 | 147 | 0.00562 | 38100 | < 0.156 | < 1e-05 | 64200
